Consider 4 molecules from patent publication US20260250338A1 (Molecular Partners, published 2026).

The target of assay [1] is T1, CD16aV allotype of human CD16a expressed on Jurkat-Lucia-NFAT-CD16 Reporter cells (InvivoGen) (human, UniProt P08637 17-254). In words: cell-based or functional assay.
Assay [2] has as its target T2, CD32a expressed on Jurkat-NFAT-CD32a reporter cells (Invivogen jktl-nfat-cd32) (UniProt P12318 34-317, limits assumed).
T2 construct: whole, on cells; also called Jurkat-Lucia NFAT-CD32a Reporter cells; Fc receptor CD32a
T2 sequence (looked up): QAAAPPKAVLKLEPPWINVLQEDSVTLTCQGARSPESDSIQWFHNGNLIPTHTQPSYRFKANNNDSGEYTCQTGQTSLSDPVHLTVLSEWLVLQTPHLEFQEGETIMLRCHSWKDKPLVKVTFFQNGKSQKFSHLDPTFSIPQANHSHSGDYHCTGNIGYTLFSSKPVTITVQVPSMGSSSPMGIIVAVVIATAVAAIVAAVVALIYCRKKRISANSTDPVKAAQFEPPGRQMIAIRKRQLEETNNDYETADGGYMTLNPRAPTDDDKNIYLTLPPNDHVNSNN
Description: flow cytometry on Jurkat-NFAT-CD32a cells, 4-fold serial dilutions, detection with anti-DARPin 1.1.1 antibody. Here is the method:
Serial dilutions (4-fold) of the constructs were incubated 30 min at 4° C. with 50000 cells in a 96-well plate. Detection antibody (anti-DARPin 1.1.1 Alexa Fluor […]) was subsequently added to the wells (2 μg/ml diluted in FACS buffer) and incubated at 4° C. for 30 min. Cold buffer was added, then cells were spun down prior to supernatant removal. Cells were then fixed with Cell fix buffer (BD) and signal was measured by flow cytometry.
A general note: Flow cytometry measures light scatter and fluorescence of single cells or particles in a stream.

Assay [3] deals with T1, CD16aV allotype of human CD16a …. Description: cell-based or functional assay. This is another data set of the same source.
Assay [4] has the same target. In words: cell-based or functional assay. The source holds these as a separate data set.
Assay [5] shares this target. Description: flow cytometry on Jurkat cells expressing CD16aV, conditions as in Example 2.
Assay [6] has as its target T3, full length human CD16b stably expressed on transduced WT Jurkat cells (human, UniProt O75015 17-200).
T3 construct: whole, on cells; also called CD16b expressing cells; Jurkat CD16b
Description: flow cytometry on Jurkat cells expressing CD16b, conditions as in Example 2.

In assay [7] the target is T4, biotinylated human CD16aV target (bio-CD16aV of SEQ ID NO: 72) (human, UniProt P08637 17-208, biotinylated (Sulfo-NHS-LC-Biotin kit)).
T4 construct: also called recombinant CD16a target
T4 sequence (P08637 other isoform, or with tags, fused parts or gaps): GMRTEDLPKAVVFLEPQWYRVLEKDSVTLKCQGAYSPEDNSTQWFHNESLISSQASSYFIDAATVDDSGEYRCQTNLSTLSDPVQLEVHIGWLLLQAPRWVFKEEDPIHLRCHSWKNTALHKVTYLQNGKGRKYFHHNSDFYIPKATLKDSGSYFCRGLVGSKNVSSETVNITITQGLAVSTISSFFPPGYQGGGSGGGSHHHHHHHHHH
Description: SPR (ProteOn XPR36), bio-CD16aV immobilised on NLC chip, construct injected at 100 nM and 1:3 dilutions, PBST, 1:1 Langmuir fit. How it is done: SPR measurements were performed using a ProteOn XPR36 instrument (BioRad). […] The signals were double referenced against the running buffer (PBST) treated control lanes.

In assay [8] the target is T3, full length human CD16b stably …. In words: flow cytometry on Jurkat-CD16b cells, 5-fold serial dilutions, detection with Penta-His Alexa Fluor 488. How it is done:
(§1) Serial dilutions (5-fold) of the constructs were incubated 30 min at 4° C. with 50000 cells in a 96-well plate. […] Cold buffer was added, then cells were spun down prior to supernatant removal. Cells were then fixed with Cell fix buffer (BD) and signal was measured by flow cytometry.

Assay [9] concerns the target T4, biotinylated human CD16aV target …. In words: SPR (ProteOn XPR36), biotinylated target on neutravidin chip, DARPin injected at 100 nM and 1:3 dilutions, 1:1 Langmuir fit. How it is done:
(§2) SPR measurements were performed using a ProteOn XPR36 instrument (BioRad). Each of biotinylated human target (bio-CD16aV of SEQ ID NO: 72) and biotinylated cyno target (bio-cCD16 of SEQ ID NO: 76) were immobilized on a neutravidin chip (NAHLC200M, Xantec ProteOn Sensor Chip) to a level of about 320 RU. The interactions of purified CD16a-specific ankyrin construct with bio-CD16aV or bio-cCD16 were measured by injecting the DARPins at 100 nM (and 1:3 dilutions) with an association of 180 s and dissociation of 600 s using a constant flow of 30 μl/min. The target was regenerated between the individual measurements using 31 mM H3PO4. The signals were double referenced against the running buffer (PBST) treated control lanes. The KD were calculated with a 1:1 Langmuir model fitting from the estimated on- and off-rates using standard procedures known to the person skilled in the art.

For assay [10], the target named is T5, biotinylated cynomolgus CD16 target (bio-cCD16 of SEQ ID NO: 76) (cynomolgus monkey, biotinylated).
T5 construct: also called Cyno CD16a
T5 chain: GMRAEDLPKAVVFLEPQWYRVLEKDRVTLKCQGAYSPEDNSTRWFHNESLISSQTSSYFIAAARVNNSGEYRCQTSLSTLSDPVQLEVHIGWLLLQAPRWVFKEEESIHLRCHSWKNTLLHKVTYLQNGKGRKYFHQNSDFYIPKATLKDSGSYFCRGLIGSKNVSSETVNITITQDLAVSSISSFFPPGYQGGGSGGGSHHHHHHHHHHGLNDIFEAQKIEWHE
The description is as above. How it is done: as §2

The target of assay [11] is T1, CD16aV allotype of human CD16a …. Description: flow cytometry on Jurkat-CD16aV cells, 5-fold serial dilutions, detection with Penta-His Alexa Fluor 488. How it is done:
as §1

Substitutions are numbered along the chain they refer to.

T1 sequence (P08637 17-254 F176V): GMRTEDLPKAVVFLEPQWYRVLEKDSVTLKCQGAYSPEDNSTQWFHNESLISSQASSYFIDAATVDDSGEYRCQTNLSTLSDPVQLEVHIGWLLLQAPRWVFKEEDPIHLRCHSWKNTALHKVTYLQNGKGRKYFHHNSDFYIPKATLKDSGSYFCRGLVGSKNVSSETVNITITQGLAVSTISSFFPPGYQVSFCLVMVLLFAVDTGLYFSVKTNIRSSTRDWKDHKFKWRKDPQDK
T3 sequence (O75015 17-200): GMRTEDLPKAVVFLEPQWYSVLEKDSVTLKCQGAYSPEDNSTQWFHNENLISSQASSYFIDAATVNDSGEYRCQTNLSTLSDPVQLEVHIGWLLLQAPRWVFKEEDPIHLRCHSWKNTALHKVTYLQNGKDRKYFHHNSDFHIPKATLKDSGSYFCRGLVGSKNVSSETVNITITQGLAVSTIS

B1: Construct No. 7 (SEQ ID NO: 10), 2D (HER2 × CD16a), DARPin #2 with N-terminal HER2 binder of SEQ ID NO: 8 (designed binder)
chain: MRGSHHHHHHGSDLGKKLLEAARAGQDDEVRELLKAGADVNAKDEYGLTPLYLATAHGHLEIVEVLLKAGADVNAVDAIGFTPLHLAAFIGHLEIAEVLLKAGADVNAQDKFGKTPADIAAGAGNEDIAEVLQKAAGSPTPTPTTPTPTPTTPTPTPTGSDLGQKLLRAAKKGQDDEVRELLKAGADVNAKDEQGWTPLHIAAWKGHLEIVEVLLKAGADVNAKDVFDWTPLHVAAHFGHLEIVEVLLKAGADVNAQDRAGETPADLAAQAGHEDIAEVLQKAA
notes: Bispecific DARPin; also called Construct 7
In the case of B1, the “EC50 (pM), ADCC reporter assay (luminescence), SKOV3 target cells, E:T 5:1, 5 h” value in assay [1] was determined as 0.37 pM. Further, the binding result in assay [2] was “no binding (tested: 400 nM)”. Moreover, in [3], the “EC50 ADCC reporter assay (CD16a) (pM), SKOV3 target cells, E:T 1:1, 24 h” value came to 4 pM.

B2: Construct 25 (SEQ ID NO: 94), CD117 × CD16a, CD117 binder SEQ ID NO: 84 N-terminal of DARPin #7 (designed binder)
chain: MRGSHHHHHHGSDLGQKLLKAAQYGQDDEVRILLAAGADVNAKDWAGKTPLHVAAEAGHLEIVEVLLKAGADVNAKDKAGETPLHLAAEQGHLEIVEVLLKAGADVNAQDEWGQTPADLAAYYGLEDIAEVLQKAAGSPTPTPTTPTPTPTTPTPTPTGSDLGQKLLRAAKKGQDDEVRELLKAGADVNAKDEQGWTPLHNAAWKGHLEIVEVLLKAGADVNAKDVFDWTPLHVAAHFGHLEIVEVLLKAGADVNAQDRAGETPADLAAQAGHEDIAEVLQKAA
notes: Bispecific DARPin; also called Construct No. 25
As to B2, in [4], the “EC50 (pM), DDCC reporter assay (luminescence), Kasumi-1 target cells, E:T 1:1, 24 h” value stood at 59.5 pM and the “Top (RLU), DDCC reporter assay (luminescence), Kasumi-1 target cells” value amounted to 36400 RLU. Besides, in assay [5], the EC50 is 25.3 nM. In addition, the binding result in [6] is “no binding”.

B3: Construct No. 1 (1D CD16a; DARPin #2 of SEQ ID NO: 2 with N-terminal His tag) (designed binder)
chain: MRGSHHHHHHGSDLGQKLLRAAKKGQDDEVRELLKAGADVNAKDEQGWTPLHIAAWKGHLEIVEVLLKAGADVNAKDVFDWTPLHVAAHFGHLEIVEVLLKAGADVNAQDRAGETPADLAAQAGHEDIAEVLQKAA
notes: also called Construct 1
As for B3, the values for the Kd in assay [7], in assay [9] and in assay [10] were 3.3 nM, 5.94 nM and 3.41 nM, respectively. The binding result is given as “no binding (tested: 1000 nM)” in assay [8] and “binds” in assay [11].

B4: DARPin #7 (SEQ ID NO: 7) with N-terminal His tag (designed binder)
chain: B3 chain with I53N
On to B4, for which the Kd in assay [9] stood at 1.98 nM; in assay [10], 0.904 nM.

Usually EC50 stands for the midpoint of the concentration-response curve. A lower EC50 goes with greater potency. Usually Kd stands for the equilibrium constant for the complex coming apart. High values mean weaker binding, low ones tighter binding.
